Laboratory results as given in patent US12516130B2, “Single-domain antibody for targeting prostate specific membrane antigen (PSMA)” (NATIONAL INSTITUTE FOR BIOTECHNOLOGY IN THE NEGEV LTD., priority 2019, dated 2026).

Columns and labels:
PSMA [1] = molecular target: T1, PSMA (Homo sapiens, UniProt Q04609); assay: Small-angle X-ray scattering of PSMA-NB complexes; conditions: for Dmax / Rg: PSMA + NB; for shift of Rg of PSMA-NB complex from the original Rg of PSMA (43 Å) / change of Dmax on binding of PSMA to NB: SAXS; for shift of Rg of PSMA-NB complex from the original Rg of PSMA (43 Å): PSMA 0.5 mg/ml; for change of Dmax on binding of PSMA to NB: PSMA alone 115 Å
T1 construct: purified extracellular domain of PSMA [residues 44-750; purchased from Caltech Protein Expression Center, CA]; purchased Caltech Protein Expression Center, CA
Method: The small-angle X-ray scattering (SAXS) of monomeric PSMA was measured in PBS at a final concentration of 0.5-3 mg/ml. For PSMA-NB complex samples, the concentration of PSMA was 0.5 mg/ml and the concentrations of the NBs were 0.1-0.5 mg/ml. Measurements were performed in beamline BM29 at the ESRF. The X-ray wavelength was 1.5 Å and the temperature was 4° C. The detector was Pilatus 1 M and the sample-to-detector distance was set at 2.86 m, with a scattering vector (q) range of 0.0025-0.5 Å^−1. At a scattering angle of 2θ, the magnitude of the scattering vector (q) is defined as: […]
The experimental SAXS data for all samples were linear in the low q, Guinier region. The radii of gyration (Rg) were derived from data in the qRg<1 region by using the Guinier approximation:
The inventors analyzed the small-angle region (0.012<q<0.08 Å^−1) of the scattering profiles using the Guinier approximation embedded in the GNOM method.
The scattering curve reflects structural characteristics in reciprocal space. Scattering profiles were translated into real space by Fourier transformation, resulting in the pairwise-distance distribution function P(r). This function reflects the distances between pairs of scattering points within the macromolecule, allowing the determination of the maximum dimension of the particle (Dmax). To obtain a reliable quantification of Dmax, the inventors incorporated GNOM with in-house scripts. The Rg of monomeric PSMA extracted from SAXS data was compared to the calculated Rg from the crystal structure of monomeric PSMA (PDB 3D7D) using CRYSOL. The overall three-dimensional ab initio models of PSMA and PSMA-NB complexes were restored from the experimental scattering data by using Dammin. Shape reconstruction was performed to represent the molecular shape as a closely packed sphere assembly within a search volume defined by Dmax, chosen with a χ^2<1.3 for all models. For all samples, 20 low-resolution models were averaged using the program DAMAVER to yield an averaged model representing the general structural features of each reconstruction.

PC3-PIP cells = assay: Time-dependent quantification of NB internalization; format: cell-based; conditions: 100 nM, imaged every 40 min for 16 h
Method: NB7, NB8, NB13, and NB37, each labeled with Dylight488, were individually incubated for 1 h (at 100 nM) in a 96-well plate. On each well, 1.5×10^4 PC3-PIP cells were seeded and grown overnight, and then the wells were imaged every 40 min for a total of 16 h, using the Operetta CLS high-content analysis system (Perkin Elmer). Each well was imaged as 24 fields, which were later combined to create an image of the entire well. Using the Operetta analysis software, the cells were qualitatively classified into two groups according to the distribution of NBs: (i) mostly on the cell membrane, and (ii) mostly inside the cytoplasm. The number of cells in each group was quantified at each time point and the ratio between the numbers of cells in each group was calculated.

[2] = test system: PC3-PIP (PSMA+) and PC3-flu (PSMA−) xenografts; assay: In vivo optical (NIR) imaging of labeled NBs; set-up: species or system athymic nude mice; conditions: for duration until the fluorescent signal was no longer detected (late time point): whole-body NIR imaging, 1.5 nmole AlexaFluor680-labeled NB i.v.
Method: Tumor xenografts were generated in 6-week old male athymic nude mice by using PC3-PIP and PC3-flu cells. Each mouse was simultaneously injected subcutaneously with 2×10^6 cells of each line, diluted 1:1 with Matrigel (Corning, USA); PC3-PIP cells were injected above the right upper flank, while PC3-flu cells were injected above the left one. Nine days after the inoculation, as the tumors reached a size of ˜200 mm^3, these mice were injected intravenously with 1.5 nmole of either NB7, NB8, NB13, or NB37 (four mice per group) labeled with NHS-ester AlexaFluor680 (Invitrogen). In addition to these 16 mice, four tumor-bearing mice were not injected with any NB, while four other mice were injected with the labeled NBs (a different NB per mouse) but were not implanted with a xenograft. The mice were anesthetized with isoflurane at different time points (see below) and the distribution of the fluorescently labeled protein was measured in near infra-red (NIR) optical imaging using the IVIS Lumina system (PerkinElmer, USA). Exposure time was set at 1 s. The fluorescence signal was measured at the time of injection, and 0.5, 1, 2, 3, 6, 10, 18, 24, 28, 32, 36, 48 and 56 h after injection. Images of the mice were acquired 3 and 6 h after injection, and again when a signal was no longer detected (24-56 h after injection). At each time point, one mouse from each group of tumor-bearing mice that had been injected with a NB was euthanized for an ex vivo quantification of the fluorescent signal in its organs, using the Living Image software.

PSMA [3] = molecular target: T1, PSMA; assay: Surface plasmon resonance binding assay; conditions: for Koff / Kon: SPR, immobilized NB, 1:1 Langmuir model, 25° C., means ± SD; for binding constant (Ka) to PSMA: stated per SEQ ID NO in the description
Method: The affinity of each NB to PSMA was determined by using surface plasmon resonance (SPR) spectroscopy on a ProteOn XPR36 chip (Bio-Rad, CA). The chip was activated by using sulfo-NHS (0.1 M N-hydroxysuccinimide) and EDC [0.4 M 1-ethyl-3-(3-dimethylaminopropyl)-carbodiimide]. Each NB (0.2 μg) was immobilized in a 10 mM sodium acetate buffer, pH 5.0, at a flow rate of 30 μl/min. Bovine serum albumin (BSA) (3 μg) was immobilized on the chip as a negative control. Unbound esters were deactivated with 1 M ethanolamine HCl at pH 8.5. The soluble PSMA was then applied over the chip at concentrations of 2.94, 5.88, 11.75, 23.50, or 47.00 nM (for NBs 8, 13, and 37) or of 25, 50, 100, 1,600, or 3,200 pM (for NB7), at a flow rate of 25 μl/min. During this time, the association between the NBs and PSMA was measured. The dissociation was measured while flowing 50 μl/min PBST (namely, a phosphate-buffered saline with 0.005% Tween). For each protein complex, a binding sensogram was generated by subtracting the values of the PSMA response to BSA from those of the PSMA response to the NBs. The dissociation constant (KD) was determined from the Langmuir 1:1 kinetic model. The temperature throughout the binding measurements was set at 25° C.

T1 sequence (Q04609 44-750): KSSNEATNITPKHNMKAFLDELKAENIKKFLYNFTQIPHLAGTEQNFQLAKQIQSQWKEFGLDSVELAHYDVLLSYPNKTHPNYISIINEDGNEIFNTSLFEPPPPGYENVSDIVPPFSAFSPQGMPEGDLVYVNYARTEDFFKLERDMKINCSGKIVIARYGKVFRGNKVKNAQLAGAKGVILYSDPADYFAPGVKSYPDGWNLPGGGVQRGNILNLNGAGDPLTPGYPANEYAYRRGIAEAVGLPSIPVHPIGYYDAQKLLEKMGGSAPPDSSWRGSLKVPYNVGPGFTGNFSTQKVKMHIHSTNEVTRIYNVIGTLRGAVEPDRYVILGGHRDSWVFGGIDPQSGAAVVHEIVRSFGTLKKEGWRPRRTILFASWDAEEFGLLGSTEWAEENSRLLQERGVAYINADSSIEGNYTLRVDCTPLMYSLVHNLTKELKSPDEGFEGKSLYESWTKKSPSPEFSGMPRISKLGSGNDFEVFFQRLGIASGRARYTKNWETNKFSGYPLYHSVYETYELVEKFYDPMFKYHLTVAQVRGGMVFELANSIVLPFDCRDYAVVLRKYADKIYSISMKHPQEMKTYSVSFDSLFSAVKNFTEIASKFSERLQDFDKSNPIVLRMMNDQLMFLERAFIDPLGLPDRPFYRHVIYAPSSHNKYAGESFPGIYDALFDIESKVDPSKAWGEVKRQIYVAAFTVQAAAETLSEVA

Molecule	Dmax (PSMA [1]; method GNOM) [Å]	Rg (PSMA [1]; method GNOM) [Å]	Rg (PSMA [1]; method Guinier) [Å]	shift of Rg of PSMA-NB complex from the original Rg of PSMA (43 Å) (PSMA [1])	change of Dmax on binding of PSMA to NB (PSMA [1])	internalization into PSMA-expressing cells (cytoplasm/membrane ratio over time) (PC3-PIP cells)	duration until the fluorescent signal was no longer detected (late time point) [2] [h]	Koff (PSMA [3]) [s⁻¹]	Kon (PSMA [3]) [M⁻¹ s⁻¹]	binding constant (Ka) to PSMA (PSMA [3])	signal intensity in the PC3-PIP tumor ([2]; ex vivo, after 3 h)	signal intensity in the PC3-flu tumor ([2]; ex vivo, after 3 h)	signal intensity in the kidneys ([2]; ex vivo, after 3 h)
NB13: anti-PSMA camel nanobody (VHH, ~16 kDa) selected by phage display (protein) VHH: QVQLQESGGGSVQTGGSLRLSCAASGYTASFSWIGYFRQAPGKEREGVAVINVGVGSTYYADSVKGRFTISRDNTENTISLEMNSLKPEDTGLYYCAGSLRWSRPPNPISEDAYNYWGQGTQVTVSSAAAYPYDVPDYGS	120	40.5	43.8	lower Rg	increased Dmax	much faster	32	2.2e-05 ± 9.9e-07	36000 ± 89	about 3.6×10^4 M^−1 s^−1	–	–	–
NB7: anti-PSMA camel nanobody (VHH, ~16 kDa) selected by phage display; PDB 6XXN (protein) VHH: QVQLQESGGGSVQAGGSLRLSCTAPGYTDSNYYMSWFRQAPGKEREWVAGVNTGRGSTSYADSVKGRFTISQDNAKNTMFLQMNSLKPEDTAIYYCAVAACHFCDSLPKTQDEYILWGQGTQVTVSSAAAYPYDVPDYGS	120	42.4	48.2	higher Rg	increased Dmax	much faster	> 56	3.9e-05 ± 2.8e-07	710000 ± 450	about 7.1×10^5 M^−1 s^−1	–	–	–
NB8: anti-PSMA camel nanobody (VHH, ~16 kDa) selected by phage display; PDB 6XXO (protein) VHH: QVQLQESGGGSVQAGGSLRLSCARSGWPYSTYSMNWFRQAPGKEREAVAGISSTMSGIIFAESKAGQFTISQDNAKNTVYLQMNNLKPEDTAIYYCAARRDYSLSSSSDDFDYWGQGTQVTVSSAAAYPYDVPDYGS	100	39.4	40.5	lower Rg	decreased it	–	32	0.00012 ± 5.3e-07	20000 ± 42	about 2×10^4 M^−1 s^−1	171,000 counts/cm^2/s	21,300 counts/cm^2/s	94,700 counts/cm^2/s
NB37: anti-PSMA camel nanobody (VHH, ~16 kDa) selected by phage display; PDB 6XXP (protein) VHH: QVQLQESGGGSVEAGGSLRLSCARSGWPYSTYSMNWFRQAPGKEREAVAGISSTMSGIIFAESKAGQFTISQDNAKNTVYLQMNNLKPEDTAIYYCAARRDYSLSSSSDDFDYWGQGTQVTVSSAAAYPYDVPDYGS	110	38.6	40.4	lower Rg	decreased it	–	24	7.5e-05 ± 6.6e-07	22000 ± 53	about 2.2×10^4 M^−1 s^−1	–	–	–
